In patent US20160310424A1 (Stanford University, published 2016):

Tests used:
[1] = biological target: T1, low-density lipoprotein receptor-related protein 6 (LRP6) (UniProt O75581 20-1370, limits assumed); test: binding affinity stated in the FIG. 17 legend on the pull-down assays; method behind the value not described
T1 sequence (looked up): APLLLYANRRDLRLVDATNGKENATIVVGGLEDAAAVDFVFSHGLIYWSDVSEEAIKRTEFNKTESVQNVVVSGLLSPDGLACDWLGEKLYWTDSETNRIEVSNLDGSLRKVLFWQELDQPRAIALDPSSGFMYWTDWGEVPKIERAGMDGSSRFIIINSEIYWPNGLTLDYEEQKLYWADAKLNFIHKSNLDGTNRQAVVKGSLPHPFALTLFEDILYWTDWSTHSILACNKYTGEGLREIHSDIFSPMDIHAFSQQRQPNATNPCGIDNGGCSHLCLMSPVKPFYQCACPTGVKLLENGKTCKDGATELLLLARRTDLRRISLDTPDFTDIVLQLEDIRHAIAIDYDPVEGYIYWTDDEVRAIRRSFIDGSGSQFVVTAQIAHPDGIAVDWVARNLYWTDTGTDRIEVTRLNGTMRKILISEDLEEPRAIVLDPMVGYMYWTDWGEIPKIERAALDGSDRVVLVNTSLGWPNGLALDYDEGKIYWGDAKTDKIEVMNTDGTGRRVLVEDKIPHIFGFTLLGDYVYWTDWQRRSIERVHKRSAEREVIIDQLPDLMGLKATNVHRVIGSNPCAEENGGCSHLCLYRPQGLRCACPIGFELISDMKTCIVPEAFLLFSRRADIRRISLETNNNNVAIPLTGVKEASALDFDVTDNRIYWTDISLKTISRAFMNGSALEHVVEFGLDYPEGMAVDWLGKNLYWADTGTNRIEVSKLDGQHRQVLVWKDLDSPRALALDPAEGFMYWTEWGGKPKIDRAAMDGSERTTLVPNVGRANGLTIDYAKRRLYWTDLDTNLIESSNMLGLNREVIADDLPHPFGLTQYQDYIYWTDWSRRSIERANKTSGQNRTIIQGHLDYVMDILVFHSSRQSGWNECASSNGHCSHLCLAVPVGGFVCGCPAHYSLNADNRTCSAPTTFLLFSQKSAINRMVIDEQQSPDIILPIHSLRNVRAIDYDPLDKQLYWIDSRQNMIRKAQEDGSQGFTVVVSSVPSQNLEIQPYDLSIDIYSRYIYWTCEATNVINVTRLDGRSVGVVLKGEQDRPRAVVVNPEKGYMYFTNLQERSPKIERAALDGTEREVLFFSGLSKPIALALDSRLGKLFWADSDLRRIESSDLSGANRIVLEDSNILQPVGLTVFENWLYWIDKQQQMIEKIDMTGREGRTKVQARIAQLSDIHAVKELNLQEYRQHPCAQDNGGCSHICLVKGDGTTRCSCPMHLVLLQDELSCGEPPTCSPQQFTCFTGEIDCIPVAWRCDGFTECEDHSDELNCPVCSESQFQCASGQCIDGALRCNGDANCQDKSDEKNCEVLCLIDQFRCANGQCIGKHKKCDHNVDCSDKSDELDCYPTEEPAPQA

Frizzled = biological target: T2, Frizzled; test: binding affinity stated with the liposome/Frizzled pull-down competition assay; method behind the value not described
T2 construct: also called Fz; Frizzled, the WNT receptor

Kd [1]: ~9 nM
Kd (Frizzled): ~3.6 nM
B1: Human Wnt3a polypeptide (ligand)
chain: SYPIWWSLAVGPQYSSLGSQPILCASIPGLVPKQLRFCRNYVEIMPSVAEGIKIGIQECQHQFRGRRWNCTTVHDSLAIFGPVLDKATRESAFVHAIASAGVAFAVTRSCAEGTAAICGCSSRHQGSPGKGWKWGGCSEDIEFGGMVSREFADARENRPDARSAMNRHNNEAGRQAIASHMHLKCKCHGLSGSCEVKTCWWSQPDFRAIGDFLKDKYDSASEMVVEKHRESRGWVETLRPRYTYFKVPTERDLVYYEASPNFCEPNPETGSFGTRDRTCNVSSHGIDGCDLLCCGRGHNARAERRREKCRCVFHWCCYVSCQECTRVYDVHTCK
modifications: palmitoylated at S209 (paragraph 228 instead reports palmitoylation at S211 and probable myristoleylation at S139 and S181); glycosylated
notes: Secreted from CHO cells and purified on blue Sepharose; In the pull-down assays it was reconstituted into DMPC:cholesterol liposomes (L-Wnt3a); also called L-Wnt3a; L-WNT3A
